This is an account of results in publication PMC3795252, “SLP-76 Sterile α Motif (SAM) and Individual H5 α Helix Mediate Oligomer Formation for Microclusters and T-cell Activation*” (The Journal of Biological Chemistry, 2013).

Where “and” joins values, the source holds several entries; their conditions need not be identical. Equal entries are not always repeated.

Series [1] deals with the molecule itself. Put plainly: MST; 10 nM NT-647-labelled protein titrated with the same protein unlabelled (0–90.5 μM, 1:1 dilutions); Monolith NT.115; 25 °C; 10 mM HEPES pH 7.5, 500 mM NaCl, 0.5 mM TCEP, 0.05% Tween 20; constant is of monomer to dimer.
Series [2] concerns the molecule itself. Put plainly: dynamic light scattering; purified SAM domain at rising concentrations; 25 °C; DynaPro; hydrodynamic radius compared with radii estimated by HYDROPRO and GRAMM-X for monomer, dimer and tetramer; dimer from 10–20 μM, tetramer >50 μM.

B1: SLP-76 SAM domain (residues 1–78), recombinant, His-tagged (domain or fragment, human, UniProt Q13094 1-78, looked up)
chain: MALRNVPFRSEVLGWDPDSLADYFKKLNYKDCEKAVKKYHIDGARFLNLTENDIQKFPKLRVPILSKLSQEINKNEER
modifications: NT-647 dye coupled to primary amines on the labelled copy used in MST (one label per protein molecule); the titrated copy is unlabelled
notes: SLP-76 (LCP2), human, N-terminal sterile alpha motif (SAM) domain, residues 1-78 (helices H1-H5); Cloned into the NdeI/BamHI sites of pET-20b(+); also called SLP-76 N-terminal SAM domain; H1–5; source: E. coli BL21(DE3), pET-20b(+), soluble fraction purified by Ni2+ column
Turning to B1, the dissociation constant (Kd) in series [1] came out at 2.5 ± 0.9 µM. Also, the “stoichiometry N” value in series [2] is 2 and 4.
